Columns and labels:
[1] = target: T1, full-length wild type human ApoE3 recombinant protein (His-tagged) (human, UniProt P02649 19-317); assay: BLI (BLItz), mAb 1H4 on protein A biosensor, run with 35.71 nM ApoE3, global fit; columns shifted: value stands under 'Ka Error' but is the kd (0.04142/2900000 = 14.28 nM)
T1 construct: Recombinant protein from Innovagen; also called ApoE3 WT full-length protein; APOE3 WT; not shown: histidine tag
Protocol: (§1) The binding affinity between ApoE3 and the monoclonal antibody 1H4 (mAb 1H4) was determined using the advanced kinetic module of the BLItz system (Blitz Pro, FB-609928, ver. 1.3.1.3). Briefly, a protein A biosensor was loaded with mAb 1H4 and both association and dissociation constants were determined at increasing concentrations of the full length ApoE3 protein (Innovagen) from 0 to 571.4 nM. The following running settings were used: 30 s initial baseline in the experimental media, 120 s loading of the ligand (mAb 1H4) on the biosensors, 30 s new baseline before association (120 s) and dissociation (120 s) steps. A total of 6 runs of 420 s at 2200 rpm and room temperature were conducted to determine the binding parameters of ApoE3. Global fitting and step corrections of the dissociation experiments were performed using the BLItz software (ver. 1.1.0.7). […] KD, Ka and Kd were measured (table 10) and calculated using the BLItz system. Top panel is representative of the association steps, the bottom panel is representative of the dissociation steps of the binding kinetic. The X and Y axes depicts time in second and binding in nM, respectively.

[2] = target: T1, full-length wild type human ApoE3 …; assay: BLI (BLItz), mAb 1H4 on protein A biosensor, run with 142.9 nM ApoE3, global fit
Protocol: as §1

[3] = target: T1, full-length wild type human ApoE3 …; assay: BLI (BLItz), mAb 1H4 on protein A biosensor, run with 71.43 nM ApoE3, global fit; columns shifted: value stands under 'Ka Error' but is the kd (0.04142/2900000 = 14.28 nM)
Protocol: as §1

[4] = target: T2, full-length ApoE3ch (ApoE3 Christchurch R136S) mutant recombinant protein (His-tagged) (human, UniProt P02649 19-317); assay: ELISA of 1H4-2 subclone serum on ApoE3ch full length protein, O.D. 450 nm against dilution factor
T2 construct: also called ApoE3ch full length protein; APOE3ch Mutant; not shown: histidine tag

[5] = target: T3, ApoEch peptide KLH-CTEELRVSLASHLRK-CONH2 (human, not fully specified; C-terminal amide (CONH2); printed with KLH on the added N-terminal cysteine); assay: ELISA, parental hybridoma clone
T3 construct: also called Mut peptide; mutant ApoE peptide
T3 peptide: CTEELRVSLASHLRK

[6] = target: T2, full-length ApoE3ch (ApoE3 Christchurch …); assay: ELISA, parental hybridoma clone
[7] = target: T4, wild type ApoE peptide KLH-CTEELRVRLASHLRK-CONH2 (human, not fully specified; C-terminal amide (CONH2); printed with KLH on the added N-terminal cysteine); assay: ELISA, parental hybridoma clone
T4 construct: also called WT peptide; ApoE3 WT peptide
T4 peptide: CTEELRVRLASHLRK

[8] = target: T1, full-length wild type human ApoE3 …; assay: ELISA, parental hybridoma clone
mouse recombinant ApoE = target: T5, mouse recombinant ApoE (mouse, UniProt P08226 19-311); assay: ELISA, His-tagged target on anti-His plate, serial antibody dilutions, anti-mouse HRP, O.D. 450 nm
T5 construct: also called mouse recombinant ApoE3; msApoE
T5 sequence (looked up): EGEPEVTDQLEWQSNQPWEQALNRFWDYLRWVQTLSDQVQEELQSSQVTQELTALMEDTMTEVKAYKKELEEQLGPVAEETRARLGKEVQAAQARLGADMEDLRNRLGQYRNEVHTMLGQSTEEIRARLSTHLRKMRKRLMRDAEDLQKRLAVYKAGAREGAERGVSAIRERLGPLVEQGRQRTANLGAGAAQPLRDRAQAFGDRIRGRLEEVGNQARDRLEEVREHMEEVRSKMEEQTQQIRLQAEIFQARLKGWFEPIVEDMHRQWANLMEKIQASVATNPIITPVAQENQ
Protocol: To test selectivity of the antibodies for huApoE3WT, huApoE3ch or msApoE, anti-his ELISA coated plates were incubated with 0.0025 μg/μL of the target protein for 2 h at R.T. under gentle shaking. Wells were washed 5 times with 1X wash buffer (R&D) and subsequently incubated with serial dilutions of Innovagen antibody of interest over night at 4° C. on a shaker (100 μL/well). The following day, wells were washed 5 times with sample buffer and incubated for 45 minutes using Rabbit-anti-mouse HRP-conjugated buffer (1:10,000; 100 μL/well; Abcam). After 5 more washes, plates were incubated with chromogen A+B 1:1 to initiate the colorimetric reaction (100 μL/well). The reaction was stopped with 2 N […] (R&D stop solution., 50 μL/well) and absorbance detected at 450 nm spectroscopically.

[9] = target: T1, full-length wild type human ApoE3 …; assay: BLI (BLItz), mAb 1H4 on protein A biosensor, run with 571.4 nM ApoE3, global fit
Protocol: as §1

[10] = target: T1, full-length wild type human ApoE3 …; assay: BLI (BLItz), mAb 1H4 on protein A biosensor, run with 71.43 nM ApoE3, global fit
Protocol: as §1

[11] = target: T1, full-length wild type human ApoE3 …; assay: BLI (BLItz), mAb 1H4 on protein A biosensor, run with 285.7 nM ApoE3, global fit; columns shifted: value stands under 'Ka Error' but is the kd (0.04142/2900000 = 14.28 nM)
Protocol: as §1

[12] = target: T1, full-length wild type human ApoE3 …; assay: BLI (BLItz), mAb 1H4 on protein A biosensor, run with 142.9 nM ApoE3, global fit; columns shifted: value stands under 'Ka Error' but is the kd (0.04142/2900000 = 14.28 nM)
Protocol: as §1

[13] = target: T1, full-length wild type human ApoE3 …; assay: BLI (BLItz), mAb 1H4 on protein A biosensor, run with 285.7 nM ApoE3, global fit
Protocol: as §1

[14] = target: T3, ApoEch peptide KLH-CTEELRVSLASHLRK-CONH2; assay: ELISA of 1H4-2 subclone serum on ApoE3ch peptide, O.D. 450 nm against dilution factor
[15] = target: T1, full-length wild type human ApoE3 …; assay: BLI (BLItz), mAb 1H4 on protein A biosensor, run with 35.71 nM ApoE3, global fit
Protocol: as §1

[16] = target: T1, full-length wild type human ApoE3 …; assay: BLI (BLItz), mAb 1H4 on protein A biosensor, run with 571.4 nM ApoE3, global fit; columns shifted: value stands under 'Ka Error' but is the kd (0.04142/2900000 = 14.28 nM)
Protocol: as §1

T1 sequence (P02649 19-317): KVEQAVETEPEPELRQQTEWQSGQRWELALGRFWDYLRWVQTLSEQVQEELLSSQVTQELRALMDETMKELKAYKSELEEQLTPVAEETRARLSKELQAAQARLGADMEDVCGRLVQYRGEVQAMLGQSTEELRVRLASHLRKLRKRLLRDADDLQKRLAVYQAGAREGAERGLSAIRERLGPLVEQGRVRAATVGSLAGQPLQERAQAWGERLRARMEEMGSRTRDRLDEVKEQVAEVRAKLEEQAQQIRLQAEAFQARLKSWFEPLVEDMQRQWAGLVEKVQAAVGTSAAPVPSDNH
T2 sequence (P02649 19-317 R154S): as the sequence (P02649 19-317) above, with R136S counted along it

koff [1]: 0.0414 s⁻¹
Kd [2]: 14.3 nM
kon [2]: 2.9e+06 M⁻¹ s⁻¹
koff [3]: 0.0414 s⁻¹
binding result [4]: no binding (tested: 1:10 dilution)
absorbance (ELISA) [5]: 0.07 absorbance
absorbance (ELISA) [6]: 0.056 absorbance
absorbance (ELISA) [7]: 2.58 absorbance
absorbance (ELISA) [8]: 2.11 absorbance
binding result (mouse recombinant ApoE): no binding (tested: 1:500 dilution)
Kd [9]: 14.3 nM
kon [9]: 2.9e+06 M⁻¹ s⁻¹
Kd [10]: 14.3 nM
kon [10]: 2.9e+06 M⁻¹ s⁻¹
koff [11]: 0.0414 s⁻¹
koff [12]: 0.0414 s⁻¹
Kd [13]: 14.3 nM
kon [13]: 2.9e+06 M⁻¹ s⁻¹
binding result [14]: no binding (tested: 1:10 dilution)
Kd [15]: 14.3 nM
kon [15]: 2.9e+06 M⁻¹ s⁻¹
koff [16]: 0.0414 s⁻¹
B1: antibody 1H4-2 (antibody, V domains shown)
VH: EVKLVESGGGVVQPGGSLKLSCAASGFTFSSYTMSWVRQTPEKRLEWVAKIRNGGGITYYLDTLKGRFTISRDNAKNTLYLQMSSLKSEDTAIYFCARHYYGSEDYFDYWGQGTTLTVSS
VL: DNVLTQSPASLAVSLGQRATISCKASQSVDYDGDSYMNWYQQKPGQPPKVFIYAASNLESGIPARFSGSGSGTDFTLNIHPVEEEDAATYYCQQSNEDPWTFGGGTKLEIK
notes: also called mAb 1H4; monoclonal 1H4 antibody

From patent publication US20240287165A1 (GENERAL HOSPITAL, published 2024)
